For one experiment, the system named is K. pneumoniae. The experiment in a line: Bacterial agglutination, FITC-labeled K. pneumoniae. As to conditions: 20 μg/mL protein, 5 mM CaCl2. Here is the method:
(§1) K. pneumoniae and E. coli DH5α (BCRC) were washed twice in 0.1 M sodium bicarbonate buffer (pH 9.6) and incubated with 0.1 mg/mL fluorescein isothiocyanate (FITC) at 37° C. in the dark. Each of 20 μg/mL of rTMD1, non-tagged rTMD1, mammalian rTMD1, and recombinant TM domains 2 and 3 (rTMD23) was co-incubated with FITC-labeled bacteria (1×10^5CFU/mL) in buffer (20 mM Tris, pH 7.4, 0.15 M NaCl, 5 mM CaCl2, 1 mg/mL BSA) with or without 0.2 M mannose or 5 mM EDTA. Samples were individually placed on a glass slide and fluorescently-labeled bacteria were observed microscopically to evaluate agglutination.

A further experiment relates to E. coli DH5α. The experiment in a line: Bacterial agglutination, FITC-labeled E. coli DH5α. The conditions noted are these: 20 μg/mL protein, 5 mM CaCl2. The method, then: as §1

B1: rTMD1: recombinant human thrombomodulin N-terminal lectin-like domain (residues Ala1-Ala155) with 6×His tag and c-Myc epitope, Pichia pastoris expressed (protein)
chain: EFAPAEPQPGGSQCVEHDCFALYPGPATFLNASQICDGLRGHLMTVRSSVAADVISLLLNGDGGVGRRRLWIGLQLPPGCGDPKRLGPLRGFQWVTGDNNTSYSRWARLDLNGAPLCGPLCVAVSAAEATVPSEPIWEEQQCEVKADGFLCEFHFPAYLEDDDDKIEQKLISEEDLNSAVDHHHHHH
modifications: left off: small tags and cut ends
As for B1, the “agglutination of K. pneumoniae” value with K. pneumoniae is “induced marked agglutination”. Moreover, the “agglutination of E. coli DH5α” value in the experiment with E. coli DH5α was “induced marked agglutination”.

(Values after patent publication US20120165244A1, “METHODS FOR BINDING LEWIS Y ANTIGEN” (priority 2008, published 2012).)
